B1: H2-Kb / B10 (parent)
chain 1: GQQVQQSPASLVLQEGENAELQCNFSSTATRLQWFYQRPGGSLVSLLSNPSGTKHTGRLTSTTVTKERRGSLHISSSQITDSGTYLCAPGGSNAKLTFGKGTKLSVKS
chain 2: DPKIIQKPKYLVAVTGSEKILICEQYLGHNAMYWYRQSAKKPLEFMFSYSYQKLMDNQTASSRFQPQSSKKNHLDLQITALKPDDSATYFCASSLRGGNNQAPLFGEGTRLSVL
chain 3: not shown
chain 4: IQKTPQIQVYSRHPPENGKPNILNCYVTQFHPPHIEIQMLKNGKKIPKVEMSDMSFSKDWSFYILAHTEFTPTETDTYACRVKHDSMAEPKTVYWDRDM
chain 5: SIINFEKL
B2: H2-Kb / G2 (parent)
chain 1: GEQVEQRPPHLSVREGDSAVIICTYTDPNSYYFFWYKQEPGAGLQLLMKVFSSTEINEGQGFTVLLNKKDKQLSLNLTAAHPGDSAVYFCAVRTNQGGRALIFGTGTTVSVSP
chain 2: EAAVTQSPRSKVAVTGGKVTLSCHQTNNHDYMYWYRQDTGHGLRLIHYSYVADSTEKGDIPDGYKASRPSQENFSLILELASLSQTAVYFCASSGTDTEVFFGKGTRLTVV
chain 3: not shown
chain 4: B1 chain 4
chain 5: SIINFEKL
B3: H2-Kb / B2 (parent)
chain 1: GEQVEQRPPHLSVREGDSAVIICTYTDPNSYYFFWYKQEPGAGLQLLMKVFSSTEINEGQGFTVLLNKKDKQLSLNLTAAHPGDSAVYFCAVSQMSNYNVLYFGSGTKLTVEP
chain 2: EAAVTQSPRNKVAVTGGKVTLSCNQTNNHNNMYWYRQDTGHGLRLIHYSYGAGSTEKGDIPDGYKASRPSQENFSLILELATPSQTSVYFCASGTGGSGQLYFGEGSKLTVL
chain 3: not shown
chain 4: B1 chain 4
chain 5: SIINFEKL

Variants of: B1
Experiment: % of reporter cells activated (NFAT-GFP), raw
Conditions: with B10; scale: % of reporter cells activated
Further: test concentration or dose not given here.

Ratio to parent of substitutions, site by site:
chain 5 N4: A 1.86 | K 1.32 | D 2.53 | R 1.37 | L 1.05 | P 1.81 | G 1.28 | V 1.85 | C 2.85 | E 1.19 | S 1.01 | I 1.8 | M 0.932 | H 1.88 | T 1.73 | Q 1.19 | F 1.51 | Y 2.14 | W 1.66
chain 5 I2: V 2.51 | S 1.22 | P 1 | A 1.03 | H 0.888 | C 2.08 | N 0.875 | E 1.27 | W 0.82 | Y 1.22 | M 0.729 | T 1.49 | L 0.898 | D 1.32 | G 0.624 | R 1.05 | Q 1.43 | K 1.71 | F 1.5
chain 5 L8: G 0.683 | S 0.903 | E 1.53 | N 0.915 | V 0.51 | R 1.34 | Q 1.11 | D 0.849 | P 1.39 | F 1.03 | I 0.769 | M 0.831 | H 0.966 | C 1.27 | W 0.814 | K 1.12 | T 0.915 | A 1.07 | Y 0.356
chain 5 S1: R 0.627 | G 0.831 | W 1.07 | F 0.678 | L 1.32 | E 0.864 | C 1.07 | I 1.1 | Y 0.966 | N 1.71 | D 0.924 | A 0.498 | K 1.53 | T 1.1 | V 1.15 | Q 0.831 | M 1.64 | P 0.849 | H 1.08
chain 5 I3: N 0.966 | P 0.949 | L 1.93 | W 0.831 | A 0.702 | Y 1.97 | T 1.44 | Q 0.61 | C 0.746 | M 1.2 | S 1.22 | F 0.897 | H 1.53 | K 1.47 | D 0.864 | V 1.12 | R 0.903 | G 1.61 | E 1.13
chain 5 E6: Y 1.57 | L 1.28 | F 1.74 | Q 1.31 | T 1.75 | K 1.31 | P 0.983 | N 0.915 | V 1.44 | W 1.09 | C 1.72 | D 1.26 | R 1.9 | H 0.924 | S 1.65 | A 0.973 | G 1.53 | M 1.2 | I 0.763
chain 5 K7: Y 0.995 | F 1.64 | M 2.2 | P 1.37 | H 2.02 | R 1.17 | Q 0.636 | N 1.54 | G 0.898 | T 1.22 | E 1.37 | A 1.64 | V 1.37 | D 1.09 | I 2.29 | S 1.39 | C 1.34 | L 1.85 | W 1
chain 5 F5: W 1.03 | Y 1.41 | G 1.63 | H 1.27 | M 1.49 | K 1.49 | P 1.86 | N 2.03 | V 1.02 | Q 1.64 | E 2.36 | R 1.1 | T 0.847 | I 1.83 | S 1.46 | C 1.1 | L 2.41 | A 1.31 | D 4.25

Variants of: B2
Experiment: % of reporter cells activated (NFAT-GFP), raw
Conditions: with G2; scale: % of reporter cells activated

Ratio to parent: each site, then its substitutions
chain 5 E6: D 1.28 | T 1.73 | I 1.02 | R 1.34 | M 1.15 | N 1.39 | Y 1.71 | C 1.18 | L 1.08 | G 1.29 | K 1.3 | S 1.01 | F 1.36 | P 1.53 | A 1.9 | W 1.31
chain 5 I3: L 1.34 | V 0.968 | Q 1.03 | D 1.26 | E 1.55 | C 1.38 | N 1.53
chain 5 N4: F 1.32 | L 1.54 | K 1.74 | R 0.952 | H 1.38 | I 1.13 | Y 0.936 | G 0.976 | V 1.26
chain 5 I2: N 1.11 | V 1.18 | G 0.928 | R 1.01 | L 1.25 | S 1.32 | F 1.32 | C 1.06 | M 0.88 | T 1.56 | E 1.41
chain 5 L8: T 0.944 | M 2.01 | C 1.06 | F 1.09 | N 1.54 | G 1.54 | R 1.45 | D 0.904 | S 1.15
chain 5 K7: L 2.32 | F 1.94 | E 1.46 | Q 1.12 | N 1.18 | P 1.46 | G 0.936 | H 1.63 | I 1.83 | A 1.58 | D 1.29
chain 5 S1: K 1.58 | R 1.02 | H 1.26 | A 1.7 | Q 1.22 | V 0.976 | I 1.45 | N 1.55 | M 1.6
chain 5 F5: R 0.864 | V 1.42 | T 1.06 | Q 1.24 | Y 1.62

Variants of: B3
Experiment: % of reporter cells activated (NFAT-GFP), raw
Conditions: with B2; scale: % of reporter cells activated

Ratio to parent: each site, then its substitutions
chain 5 F5: Q 1.75 | D 1.06 | S 0.73 | R 0.476 | T 0.632 | I 1.82 | V 0.346 | P 0.703 | H 12.1 | W 0.519 | L 3.33 | C 3.54 | N 1.95 | Y 7.49 | M 1.38 | G 0.438 | K 0.741 | E 0.573 | A 1.27
chain 5 L8: C 2.06 | K 1.17 | A 8.62 | M 3.42 | F 8.42 | G 0.849 | D 0.914 | E 0.551 | I 0.708 | H 2.32
chain 5 K7: M 2.53 | C 2.46 | T 1.99 | V 12.4 | S 3.71 | N 1.84 | D 3.15 | I 1.95 | F 4.64 | Y 2.46 | E 1.49 | G 7.31 | W 7.51 | A 4.46 | P 3.7 | H 4.08 | L 2.05 | R 1.97 | Q 1.96
chain 5 I3: F 0.324 | C 0.795 | Q 0.524 | R 0.335 | W 0.578 | N 0.389 | H 0.676 | P 0.692 | T 0.4 | M 0.659 | Y 0.476 | S 0.4 | K 0.427 | D 0.481 | A 0.741 | L 0.724 | G 0.568 | E 0.432 | V 0.449
chain 5 E6: F 0.584 | P 0.741 | I 0.67 | L 0.53 | H 0.497 | A 0.557 | M 0.946 | D 0.6 | Y 0.697 | S 0.751 | W 0.6 | G 1.06 | T 0.746 | N 0.535 | R 0.573 | V 0.422 | K 1.8 | Q 0.724 | C 0.811
chain 5 I2: E 0.654 | Q 0.573 | Y 0.87 | A 1.58 | T 1.68 | V 1.91 | W 0.768 | H 0.93 | S 0.714 | L 4.69 | G 0.876 | P 0.892 | D 1 | R 1.36 | M 2.66 | F 2.06 | K 1.18 | C 1.2 | N 0.589

From publication PMC11480844
